Results as given in US20200268910A1 (SANFORD BURNHAM PREBYS MEDICAL DISCOVERY INSTITUTE, published 2020).
Bridge positions count the residues as written; N and C are the ends. Ends that are not written are not given here. FAM = 5(6)-carboxyfluorescein; Ahx = NCCCCCC(=O)O

Tests used:
[1] = biological target: mouse CD206 on peritoneal cells from 4T1 tumor-bearing mice (mouse) (UniProt Q61830); experiment: flow cytometry on peritoneal cells of 4T1 tumor mice; 10 µg/mL antibody, then FAM-UNO at 0.5 µg/mL
[2] = biological target: T1, mouse CD206 on peritoneal cells from 4T1 tumor-bearing mice (mouse, UniProt Q61830 20-1456); experiment: flow cytometry on peritoneal cells, legend of FIG. 4D
T1 construct: whole, on cells; Primary cells that carry many other proteins; also called MRC1; mannose receptor
T1 sequence (looked up): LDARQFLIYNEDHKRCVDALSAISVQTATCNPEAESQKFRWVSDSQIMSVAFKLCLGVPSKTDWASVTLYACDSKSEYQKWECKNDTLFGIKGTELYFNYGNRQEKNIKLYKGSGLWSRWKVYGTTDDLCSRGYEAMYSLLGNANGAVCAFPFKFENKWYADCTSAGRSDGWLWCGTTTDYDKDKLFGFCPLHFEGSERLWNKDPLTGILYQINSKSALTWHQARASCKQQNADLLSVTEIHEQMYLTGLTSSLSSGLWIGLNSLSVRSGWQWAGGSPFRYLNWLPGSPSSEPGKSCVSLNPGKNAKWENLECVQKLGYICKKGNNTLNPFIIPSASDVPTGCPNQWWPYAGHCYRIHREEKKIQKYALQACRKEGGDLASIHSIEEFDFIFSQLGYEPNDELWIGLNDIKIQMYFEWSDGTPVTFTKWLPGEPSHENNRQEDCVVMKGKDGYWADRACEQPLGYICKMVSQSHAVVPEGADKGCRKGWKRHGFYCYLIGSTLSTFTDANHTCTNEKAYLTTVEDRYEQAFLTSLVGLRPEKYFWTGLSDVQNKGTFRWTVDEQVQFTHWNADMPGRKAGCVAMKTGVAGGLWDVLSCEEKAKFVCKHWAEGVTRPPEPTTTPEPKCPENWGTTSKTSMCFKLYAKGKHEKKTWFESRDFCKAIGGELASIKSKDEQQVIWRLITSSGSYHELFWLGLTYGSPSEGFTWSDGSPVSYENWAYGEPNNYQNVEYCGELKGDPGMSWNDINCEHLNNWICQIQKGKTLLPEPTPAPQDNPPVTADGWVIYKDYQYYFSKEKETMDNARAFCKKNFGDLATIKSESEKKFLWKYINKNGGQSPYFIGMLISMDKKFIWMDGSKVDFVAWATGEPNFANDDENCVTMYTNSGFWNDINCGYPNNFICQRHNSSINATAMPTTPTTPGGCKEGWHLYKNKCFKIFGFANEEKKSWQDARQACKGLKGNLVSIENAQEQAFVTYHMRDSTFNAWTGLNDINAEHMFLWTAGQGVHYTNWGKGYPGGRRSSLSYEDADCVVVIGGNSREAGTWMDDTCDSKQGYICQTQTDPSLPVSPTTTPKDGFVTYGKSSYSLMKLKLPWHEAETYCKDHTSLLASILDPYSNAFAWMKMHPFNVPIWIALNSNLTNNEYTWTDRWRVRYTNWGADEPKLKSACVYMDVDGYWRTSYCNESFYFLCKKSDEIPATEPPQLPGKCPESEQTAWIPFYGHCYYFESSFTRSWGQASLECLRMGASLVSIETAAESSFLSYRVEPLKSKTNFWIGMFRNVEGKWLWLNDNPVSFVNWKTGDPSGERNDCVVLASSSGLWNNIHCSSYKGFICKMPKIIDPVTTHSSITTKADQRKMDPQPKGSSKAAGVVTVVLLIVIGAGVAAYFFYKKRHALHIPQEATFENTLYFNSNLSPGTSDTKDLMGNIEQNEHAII
Protocol: Mice were anesthetized and intraperitoneally injected with 5 mL of PBS+1% BSA, the abdomen was massaged to detach macrophages and the peritoneal fluid was collected. This procedure typically yielded 5-9×10⁶ cells. Cells were concentrated to 1 mL in the same peritoneal fluid. For FAM-peptide incubation, the peptides were incubated for 30 minutes at 4° C. For antibody incubation the cells were incubated with antibody for 1 h at 4° C. A647 Rat anti-CCR2 (Biolegend, CA, USA. Catalog number 150603) was incubated for 1 h at 4° C. at a dilution of 1/200. FAM-peptides were incubated at a concentration of 0.5 μg/mL, and Rat anti-CD206 (Bio-Rad, CA, USA. Product code MCA2235GA) was incubated at a concentration of 10 μg/mL. Binding of FAM-peptides was monitored with 488 nm channel and CCR2 labeling was assessed in the 647 nm channel using A647 Anti-CCR2 (Biolegend, CA, USA). After incubation of FAM-Peptides or antibodies, the cells were washed 3 times at 4° C. with PBS-Tby centrifugation at 250 g for 6 minutes, followed by flow cytometry analysis (Accuri, BD Biosciences, CA, USA).
The effect of a blocking anti-CD206 antibody on FAM-UNO binding to peritoneal cells isolated from 4T1 tumor mice was studied. Flow cytometry experiments were performed by incubating FAM-peptide with the cells suspended in the peritoneal fluid; this i.p. fluid also contained glutathione (FIG. 24). […]

[3] = biological target: T2, recombinant human macrophage mannose receptor rhMMR/CD206 (human, UniProt P22897 19-1383, limits assumed); experiment: fluorescence anisotropy, in solution, kinetic mode
T2 construct: Bought recombinant protein; also called human recombinant CD206; hCD206
T2 sequence (looked up): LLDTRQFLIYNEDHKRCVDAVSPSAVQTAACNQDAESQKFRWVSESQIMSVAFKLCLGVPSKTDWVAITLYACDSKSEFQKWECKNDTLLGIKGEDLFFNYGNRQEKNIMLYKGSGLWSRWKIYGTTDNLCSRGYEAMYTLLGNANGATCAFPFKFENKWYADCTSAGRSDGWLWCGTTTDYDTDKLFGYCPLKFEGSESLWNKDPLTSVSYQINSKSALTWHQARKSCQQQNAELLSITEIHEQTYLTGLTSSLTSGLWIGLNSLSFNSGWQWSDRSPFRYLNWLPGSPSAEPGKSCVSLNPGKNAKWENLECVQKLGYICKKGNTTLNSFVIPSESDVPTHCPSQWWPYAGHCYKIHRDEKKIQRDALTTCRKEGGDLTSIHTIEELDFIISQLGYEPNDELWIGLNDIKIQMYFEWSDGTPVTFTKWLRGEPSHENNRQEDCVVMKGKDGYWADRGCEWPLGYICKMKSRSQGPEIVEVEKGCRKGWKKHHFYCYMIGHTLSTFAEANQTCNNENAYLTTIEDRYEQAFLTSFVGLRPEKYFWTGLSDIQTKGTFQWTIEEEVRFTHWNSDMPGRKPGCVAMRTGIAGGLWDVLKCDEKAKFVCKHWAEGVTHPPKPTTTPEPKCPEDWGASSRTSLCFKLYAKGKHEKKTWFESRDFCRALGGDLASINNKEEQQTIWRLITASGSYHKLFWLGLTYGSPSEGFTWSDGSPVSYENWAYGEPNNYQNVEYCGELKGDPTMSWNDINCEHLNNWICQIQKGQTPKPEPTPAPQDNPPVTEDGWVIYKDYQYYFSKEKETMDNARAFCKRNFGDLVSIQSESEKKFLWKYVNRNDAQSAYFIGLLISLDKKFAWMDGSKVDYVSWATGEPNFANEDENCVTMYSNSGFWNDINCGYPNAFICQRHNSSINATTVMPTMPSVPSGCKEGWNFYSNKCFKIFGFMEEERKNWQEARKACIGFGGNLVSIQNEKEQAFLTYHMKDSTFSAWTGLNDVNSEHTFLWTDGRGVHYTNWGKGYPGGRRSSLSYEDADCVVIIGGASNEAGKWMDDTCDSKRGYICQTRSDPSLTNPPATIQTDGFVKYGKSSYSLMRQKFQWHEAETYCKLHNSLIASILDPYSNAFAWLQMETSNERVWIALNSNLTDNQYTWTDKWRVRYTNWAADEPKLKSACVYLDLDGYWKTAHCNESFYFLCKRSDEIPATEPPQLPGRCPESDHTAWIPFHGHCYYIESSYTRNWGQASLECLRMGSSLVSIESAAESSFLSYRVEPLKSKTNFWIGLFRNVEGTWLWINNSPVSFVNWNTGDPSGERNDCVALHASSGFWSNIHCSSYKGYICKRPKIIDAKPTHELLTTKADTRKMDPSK

[4] = biological target: T3, recombinant mouse macrophage mannose receptor rmMMR/CD206 (mouse, UniProt Q61830 20-1388, limits assumed); experiment: fluorescence anisotropy, in solution, 50 nM peptide and 1 µM protein
T3 construct: Bought recombinant protein; also called mouse recombinant CD206; MRC1
T3 sequence (looked up): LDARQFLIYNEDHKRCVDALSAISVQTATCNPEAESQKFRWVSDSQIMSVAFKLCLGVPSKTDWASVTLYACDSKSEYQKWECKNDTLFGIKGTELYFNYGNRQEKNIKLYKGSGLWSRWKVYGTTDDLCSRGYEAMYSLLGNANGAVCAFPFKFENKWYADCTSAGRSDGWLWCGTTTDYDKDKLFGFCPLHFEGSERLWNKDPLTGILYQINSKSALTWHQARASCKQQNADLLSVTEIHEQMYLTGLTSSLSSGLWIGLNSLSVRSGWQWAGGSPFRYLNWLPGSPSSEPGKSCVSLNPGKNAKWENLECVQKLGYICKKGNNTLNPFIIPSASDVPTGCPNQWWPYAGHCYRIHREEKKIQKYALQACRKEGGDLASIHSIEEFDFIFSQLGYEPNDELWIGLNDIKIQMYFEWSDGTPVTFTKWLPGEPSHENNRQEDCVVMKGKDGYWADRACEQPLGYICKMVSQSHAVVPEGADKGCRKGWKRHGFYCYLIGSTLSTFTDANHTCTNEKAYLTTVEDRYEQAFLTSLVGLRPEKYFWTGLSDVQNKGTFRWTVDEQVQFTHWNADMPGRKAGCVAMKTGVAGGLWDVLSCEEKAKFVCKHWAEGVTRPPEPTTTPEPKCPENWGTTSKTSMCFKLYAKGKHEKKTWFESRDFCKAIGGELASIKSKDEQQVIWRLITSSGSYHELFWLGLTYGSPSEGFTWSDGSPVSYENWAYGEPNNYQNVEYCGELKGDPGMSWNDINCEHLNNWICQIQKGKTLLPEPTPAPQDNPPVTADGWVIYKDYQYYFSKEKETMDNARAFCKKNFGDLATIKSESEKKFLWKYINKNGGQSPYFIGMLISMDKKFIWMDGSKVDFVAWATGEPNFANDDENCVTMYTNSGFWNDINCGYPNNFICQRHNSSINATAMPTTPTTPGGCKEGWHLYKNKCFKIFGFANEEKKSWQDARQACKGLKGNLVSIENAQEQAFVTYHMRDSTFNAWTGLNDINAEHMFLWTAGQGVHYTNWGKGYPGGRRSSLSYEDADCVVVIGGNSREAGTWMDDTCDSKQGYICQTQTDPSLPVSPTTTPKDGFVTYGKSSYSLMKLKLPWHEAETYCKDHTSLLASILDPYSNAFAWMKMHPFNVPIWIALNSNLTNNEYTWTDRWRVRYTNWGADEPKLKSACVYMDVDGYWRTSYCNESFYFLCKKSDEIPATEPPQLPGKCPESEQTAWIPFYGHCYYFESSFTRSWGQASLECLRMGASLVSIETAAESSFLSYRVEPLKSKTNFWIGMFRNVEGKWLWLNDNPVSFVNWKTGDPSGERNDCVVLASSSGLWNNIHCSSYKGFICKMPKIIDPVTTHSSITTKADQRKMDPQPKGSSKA
Protocol: In all experiments, FA signal measurements were done under pseudo first-order conditions with 50 nM singly labelled FAM peptides and 1 μM proteins. […] Assays were carried out in kinetic mode in a total volume of 30 μl at 25° C. on the PHERAstar (BMG Labtech, Germany) microplate reader using an optical module with excitation and emission filters of 485 nm (slit 10 nm) and 520 nm (slit 10 nm), respectively. Dual emission detection mode allows simultaneous recording of intensities that are parallel (l) and perpendicular (1) to the plane of excitation light. Sensitivities of channels (G factor) were corrected with gain adjustment of the photomultiplier tubes (PMTs) using fluorescein as a standard. The background fluorescence (receptor and buffer components in the absence of fluorescent ligand) was subtracted independently from all intensity channels. FA signals at time t after initiation of binding reaction was calculated as parameters r(t) from the equation: […]

recombinant mouse CD163 = recombinant mouse CD163 (mouse, UniProt Q2VLH6 39-1045, limits assumed); experiment: fluorescence anisotropy, in solution, kinetic mode
[5] = biological target: T3, recombinant mouse macrophage mannose …; experiment: fluorescence anisotropy, in solution, kinetic mode

Sequence of recombinant mouse CD163 (Q2VLH6 39-1045 limits assumed): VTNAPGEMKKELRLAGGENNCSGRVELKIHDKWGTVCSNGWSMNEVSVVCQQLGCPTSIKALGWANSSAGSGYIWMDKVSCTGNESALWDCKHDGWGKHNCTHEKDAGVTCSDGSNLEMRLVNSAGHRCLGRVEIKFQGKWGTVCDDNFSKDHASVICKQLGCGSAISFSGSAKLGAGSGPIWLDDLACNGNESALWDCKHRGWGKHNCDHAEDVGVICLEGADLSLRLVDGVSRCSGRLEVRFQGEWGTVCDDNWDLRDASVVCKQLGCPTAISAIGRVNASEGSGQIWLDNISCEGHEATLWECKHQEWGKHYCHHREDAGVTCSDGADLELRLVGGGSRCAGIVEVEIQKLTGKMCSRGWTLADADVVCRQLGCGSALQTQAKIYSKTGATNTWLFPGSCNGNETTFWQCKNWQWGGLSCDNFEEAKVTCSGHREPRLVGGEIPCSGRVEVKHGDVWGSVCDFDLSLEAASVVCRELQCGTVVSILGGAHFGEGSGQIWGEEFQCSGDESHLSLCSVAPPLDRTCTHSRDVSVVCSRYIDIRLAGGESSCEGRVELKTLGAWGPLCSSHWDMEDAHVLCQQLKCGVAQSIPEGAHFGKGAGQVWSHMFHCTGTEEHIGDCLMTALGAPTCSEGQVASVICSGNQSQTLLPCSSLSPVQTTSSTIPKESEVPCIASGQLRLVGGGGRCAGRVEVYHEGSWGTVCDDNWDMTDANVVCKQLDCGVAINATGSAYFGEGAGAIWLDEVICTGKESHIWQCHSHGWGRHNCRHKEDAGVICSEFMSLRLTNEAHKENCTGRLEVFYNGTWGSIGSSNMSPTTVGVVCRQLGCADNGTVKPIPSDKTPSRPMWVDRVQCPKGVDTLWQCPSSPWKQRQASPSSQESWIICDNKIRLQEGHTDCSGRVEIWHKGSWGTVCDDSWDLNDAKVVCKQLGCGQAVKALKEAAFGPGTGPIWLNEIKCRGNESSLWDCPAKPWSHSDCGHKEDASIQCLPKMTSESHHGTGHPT

Work on “rat anti-CD206 antibody (Bio-Rad, product code MCA2235GA)” yielded a reduction of FAM-UNO binding [1] of 25%.

B1: FAM-UNO (cyclic, disulfide-bridged FAM-labeled CSPGAKVRC) (peptide)
peptide: {FAM-Ahx}-CSPGAKVRC
modifications: disulfide 1-9
notes: Cyclic CX7C peptide from a phage library, used as a synthetic FAM-labeled peptide without reduction; also called FAM-labeled UNO
B1: binds [2]; no binding (tested: 100 nM FAM peptide, 0.4 µM protein) [3].

{FAM-Ahx}-CSPGAK (also called linear CSPGAK) [FAM-CSPGAK]: binds [4]; no binding (tested: 50 nM FAM peptide, 1 µM protein) (recombinant mouse CD163).

B2: FAM-CPMTDNE (control peptide) (peptide)
peptide: {FAM-Ahx}-CPMTDNE
notes: Control peptide of the fluorescence anisotropy assay
B2: no binding (tested: 50 nM FAM peptide, 1 µM protein) [5].
